Experimental data: paper PMC4828686
Several values for one entry are separate records, joined by “and”; a condition that tells them apart may be missing. Identical values can stand only once.

Key:
[1] = target: Actin, purified (rabbit skeletal muscle; Cytoskeleton, Inc.) (rabbit) (UniProt P68135); assay: SPR
[2] = target: Actin mutant that cannot polymerize (G-actin mimetic; Joel et al., 2004); assay: SPR
[3] = target: Actin, purified (rabbit skeletal muscle; Cytoskeleton, Inc.) (rabbit) (UniProt P68135); assay: co-sedimentation
[4] = target: GST-fused full-length kindlin-2 LK47/AA mutant (GST-K2LK47/AA) (human) (UniProt Q96AC1); assay: pull-down
[5] = target: Actin, purified (rabbit skeletal muscle; Cytoskeleton, Inc.) (rabbit) (UniProt P68135); assay: ELISA

Substance | Kd [1] | percent of the added protein in the actin pellet [3] | other results
GST-fused full-length kindlin-2 (GST-K2) (from UniProt Q96AC1 1-680) (natural protein) | 136 nM and 190 nM |  | Kd [2]: 124 nM
α-actinin (natural protein) |  | 52% | 
Actin, purified (rabbit skeletal muscle; Cytoskeleton, Inc.) (from UniProt P68135 1-377) (natural protein) |  |  | mean percent less actin pulled down than by WT K2 [4]: 75%
Full-length kindlin-2 (K2), GST tag removed by Factor Xa (from UniProt Q96AC1 1-680) (natural protein) |  | 36% and 30% to 54% (2×) | 
GST-fused full-length kindlin-2 LK47/AA mutant (GST-K2LK47/AA) (from UniProt Q96AC1 1-680) (natural protein) | 982 nM and 1580 nM |  | fold difference of the relative Kd against WT K2 [5]: 3 fold and 5 fold
